Values quoted from earlier work, collected in PMC3708895.

Target: T4 capsid (gp23) (Escherichia virus T4) (UniProt P04535)
Chain of UniProt P04535 (P04535 66-521): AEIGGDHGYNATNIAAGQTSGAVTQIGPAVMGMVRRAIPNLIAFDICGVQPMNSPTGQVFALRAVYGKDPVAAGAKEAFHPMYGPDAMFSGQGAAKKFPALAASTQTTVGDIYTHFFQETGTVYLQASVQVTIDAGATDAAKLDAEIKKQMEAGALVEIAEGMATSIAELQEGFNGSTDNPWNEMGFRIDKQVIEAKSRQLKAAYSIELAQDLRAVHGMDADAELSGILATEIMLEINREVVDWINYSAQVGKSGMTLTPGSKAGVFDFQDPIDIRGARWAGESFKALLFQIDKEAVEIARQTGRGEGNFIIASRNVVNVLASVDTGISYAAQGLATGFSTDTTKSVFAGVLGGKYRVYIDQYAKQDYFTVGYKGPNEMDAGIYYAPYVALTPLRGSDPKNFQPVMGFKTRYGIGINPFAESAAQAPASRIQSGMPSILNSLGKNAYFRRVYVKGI

Question: With Soc (from UniProt P03715) as the substance, how does the Kd read?
Answer: The Kd was 75 nM.
